Where no end group is shown, it is not given here.
How the values were obtained:
Experiment in all cases: cell-based or functional assay
NPY1R = target: T1, NPY1R (UniProt P25929 1-384)
T1 sequence (looked up): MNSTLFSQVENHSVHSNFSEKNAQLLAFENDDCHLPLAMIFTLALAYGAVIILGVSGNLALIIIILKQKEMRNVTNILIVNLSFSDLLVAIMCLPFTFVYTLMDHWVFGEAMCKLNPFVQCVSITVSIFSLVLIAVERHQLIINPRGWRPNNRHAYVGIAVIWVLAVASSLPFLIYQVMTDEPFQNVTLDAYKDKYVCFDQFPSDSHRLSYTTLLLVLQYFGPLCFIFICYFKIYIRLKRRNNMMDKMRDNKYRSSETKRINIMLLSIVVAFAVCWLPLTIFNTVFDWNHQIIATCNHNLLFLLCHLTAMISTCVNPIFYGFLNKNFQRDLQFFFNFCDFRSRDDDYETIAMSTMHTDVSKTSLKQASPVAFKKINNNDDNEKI

SSTR3 = SSTR3 (UniProt P32745 1-418)
GPR92 = GPR92 (UniProt Q9H1C0 1-372)
NTSR1 = NTSR1 (UniProt P30989 1-418)
GPR120 = target: T2, GPR120 (UniProt Q5NUL3 1-361, limits assumed)
T2 sequence (looked up): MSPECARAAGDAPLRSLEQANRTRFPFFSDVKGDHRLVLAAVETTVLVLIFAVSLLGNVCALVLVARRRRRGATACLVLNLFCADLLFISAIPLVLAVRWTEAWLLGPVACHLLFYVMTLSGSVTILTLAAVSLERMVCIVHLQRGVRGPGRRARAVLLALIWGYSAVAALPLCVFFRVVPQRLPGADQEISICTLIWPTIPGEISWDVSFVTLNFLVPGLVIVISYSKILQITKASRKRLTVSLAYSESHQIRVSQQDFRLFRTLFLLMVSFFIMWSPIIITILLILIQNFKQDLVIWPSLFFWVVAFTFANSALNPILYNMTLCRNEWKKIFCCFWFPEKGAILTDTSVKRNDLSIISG

CHRM1 = target: T3, CHRM1 (UniProt P11229 1-460)
T3 sequence (looked up): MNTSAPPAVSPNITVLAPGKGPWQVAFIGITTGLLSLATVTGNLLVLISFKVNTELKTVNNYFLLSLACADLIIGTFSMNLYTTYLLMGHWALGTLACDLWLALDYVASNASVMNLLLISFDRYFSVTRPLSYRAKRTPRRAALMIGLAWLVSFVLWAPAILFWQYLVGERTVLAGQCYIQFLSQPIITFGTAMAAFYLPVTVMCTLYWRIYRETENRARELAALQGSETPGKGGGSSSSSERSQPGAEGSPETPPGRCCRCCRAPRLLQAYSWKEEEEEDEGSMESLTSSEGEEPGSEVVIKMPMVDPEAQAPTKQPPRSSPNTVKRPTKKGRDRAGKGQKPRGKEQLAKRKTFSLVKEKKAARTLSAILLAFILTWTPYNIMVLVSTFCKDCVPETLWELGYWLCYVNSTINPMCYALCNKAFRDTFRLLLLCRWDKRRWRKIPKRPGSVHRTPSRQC

HRH3 = HRH3 (UniProt Q9Y5N1 1-445, limits assumed)
FPRL1 = target: T4, FPRL1 (UniProt P25090 1-351)
T4 sequence (looked up): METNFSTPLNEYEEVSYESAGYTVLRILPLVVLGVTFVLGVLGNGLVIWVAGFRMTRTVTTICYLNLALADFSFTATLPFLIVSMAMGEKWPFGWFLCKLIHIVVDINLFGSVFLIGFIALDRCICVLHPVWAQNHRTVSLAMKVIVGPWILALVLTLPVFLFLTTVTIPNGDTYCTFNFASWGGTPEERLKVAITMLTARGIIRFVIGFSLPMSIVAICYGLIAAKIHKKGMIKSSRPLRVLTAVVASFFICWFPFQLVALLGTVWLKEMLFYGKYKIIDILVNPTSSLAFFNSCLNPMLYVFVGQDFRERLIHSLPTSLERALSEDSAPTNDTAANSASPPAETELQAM

BDKRB1 = target: T5, BDKRB1 (UniProt P46663 1-353)
T5 sequence (looked up): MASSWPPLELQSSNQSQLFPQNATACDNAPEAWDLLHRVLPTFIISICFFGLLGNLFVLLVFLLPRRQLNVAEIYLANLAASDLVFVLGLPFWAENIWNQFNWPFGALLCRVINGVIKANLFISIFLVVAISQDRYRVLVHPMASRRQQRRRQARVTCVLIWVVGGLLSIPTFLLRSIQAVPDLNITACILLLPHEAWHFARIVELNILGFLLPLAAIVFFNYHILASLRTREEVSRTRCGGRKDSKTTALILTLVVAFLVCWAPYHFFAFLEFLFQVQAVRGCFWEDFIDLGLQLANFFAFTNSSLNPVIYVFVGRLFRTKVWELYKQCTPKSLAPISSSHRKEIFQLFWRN

PTGER2 = PTGER2 (UniProt P43116 1-358)
CCKAR = target: T6, CCKAR (UniProt P32238 1-428)
T6 sequence (looked up): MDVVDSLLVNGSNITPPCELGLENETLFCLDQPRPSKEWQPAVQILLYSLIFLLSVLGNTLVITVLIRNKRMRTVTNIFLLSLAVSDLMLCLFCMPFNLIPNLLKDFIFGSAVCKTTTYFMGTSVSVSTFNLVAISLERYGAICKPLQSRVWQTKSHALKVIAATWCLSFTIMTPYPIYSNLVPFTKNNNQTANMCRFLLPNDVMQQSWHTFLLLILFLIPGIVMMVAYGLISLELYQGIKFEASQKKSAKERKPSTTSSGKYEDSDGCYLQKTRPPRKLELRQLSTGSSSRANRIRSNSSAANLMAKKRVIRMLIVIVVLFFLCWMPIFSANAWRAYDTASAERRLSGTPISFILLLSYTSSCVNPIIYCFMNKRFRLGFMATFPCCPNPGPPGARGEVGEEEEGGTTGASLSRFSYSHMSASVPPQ

Sequence of PTGER2 (P43116 whole entry): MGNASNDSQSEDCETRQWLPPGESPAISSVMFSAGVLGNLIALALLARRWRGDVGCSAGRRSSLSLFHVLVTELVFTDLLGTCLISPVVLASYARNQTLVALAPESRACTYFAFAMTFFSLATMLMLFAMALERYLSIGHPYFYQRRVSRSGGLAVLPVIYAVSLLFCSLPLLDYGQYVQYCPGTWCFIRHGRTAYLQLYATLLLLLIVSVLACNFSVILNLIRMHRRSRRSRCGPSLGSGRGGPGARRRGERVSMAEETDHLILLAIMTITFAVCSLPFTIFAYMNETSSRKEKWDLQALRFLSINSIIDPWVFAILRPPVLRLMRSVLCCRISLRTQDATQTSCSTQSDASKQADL
Sequence of SSTR3 (P32745 whole entry): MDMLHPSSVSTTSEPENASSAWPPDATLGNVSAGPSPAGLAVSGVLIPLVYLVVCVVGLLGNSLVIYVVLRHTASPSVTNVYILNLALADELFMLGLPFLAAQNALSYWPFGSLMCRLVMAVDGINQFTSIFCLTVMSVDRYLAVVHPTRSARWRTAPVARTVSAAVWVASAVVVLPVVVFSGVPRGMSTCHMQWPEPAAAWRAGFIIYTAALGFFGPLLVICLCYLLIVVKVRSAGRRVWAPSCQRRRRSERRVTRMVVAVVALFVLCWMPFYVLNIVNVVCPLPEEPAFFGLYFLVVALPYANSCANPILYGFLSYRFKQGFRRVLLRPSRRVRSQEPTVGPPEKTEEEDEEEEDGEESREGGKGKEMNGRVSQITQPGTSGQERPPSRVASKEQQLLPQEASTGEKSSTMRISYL
Sequence of GPR92 (Q9H1C0 whole entry): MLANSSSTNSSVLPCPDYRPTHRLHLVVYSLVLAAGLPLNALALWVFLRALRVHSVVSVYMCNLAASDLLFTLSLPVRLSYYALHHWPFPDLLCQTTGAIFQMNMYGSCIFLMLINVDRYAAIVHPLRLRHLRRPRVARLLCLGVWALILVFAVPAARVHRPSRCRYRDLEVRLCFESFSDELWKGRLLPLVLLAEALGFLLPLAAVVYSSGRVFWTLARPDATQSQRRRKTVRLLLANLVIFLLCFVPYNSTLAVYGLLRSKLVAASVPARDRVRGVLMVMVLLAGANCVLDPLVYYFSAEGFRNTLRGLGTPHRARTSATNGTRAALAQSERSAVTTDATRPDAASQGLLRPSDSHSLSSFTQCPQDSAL
Sequence of HRH3 (Q9Y5N1 whole entry): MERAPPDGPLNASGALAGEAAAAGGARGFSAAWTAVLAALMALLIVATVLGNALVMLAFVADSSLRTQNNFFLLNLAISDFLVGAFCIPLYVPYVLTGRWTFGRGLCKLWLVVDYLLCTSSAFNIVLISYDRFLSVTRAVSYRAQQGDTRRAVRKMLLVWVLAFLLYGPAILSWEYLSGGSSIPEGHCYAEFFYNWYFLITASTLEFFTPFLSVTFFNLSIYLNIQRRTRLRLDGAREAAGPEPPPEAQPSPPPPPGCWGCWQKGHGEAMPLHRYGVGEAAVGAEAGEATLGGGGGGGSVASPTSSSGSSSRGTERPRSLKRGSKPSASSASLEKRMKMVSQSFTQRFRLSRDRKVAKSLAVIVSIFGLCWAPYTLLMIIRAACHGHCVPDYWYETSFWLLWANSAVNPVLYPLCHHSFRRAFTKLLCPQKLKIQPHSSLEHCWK
Sequence of NTSR1 (P30989 whole entry): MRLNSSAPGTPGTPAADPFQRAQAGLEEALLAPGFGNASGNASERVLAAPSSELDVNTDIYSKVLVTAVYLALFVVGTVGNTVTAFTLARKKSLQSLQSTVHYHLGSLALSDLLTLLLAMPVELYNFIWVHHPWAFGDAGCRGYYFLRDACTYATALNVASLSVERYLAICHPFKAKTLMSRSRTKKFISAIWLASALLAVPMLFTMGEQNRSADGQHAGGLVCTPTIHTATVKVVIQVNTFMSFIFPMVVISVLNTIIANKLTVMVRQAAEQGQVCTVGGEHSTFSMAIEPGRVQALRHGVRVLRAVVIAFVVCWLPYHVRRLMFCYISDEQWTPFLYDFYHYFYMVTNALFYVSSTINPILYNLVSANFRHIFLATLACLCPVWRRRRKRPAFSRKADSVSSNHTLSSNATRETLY

QATVGDVNTDRPGLLDLK (also: synthesised on Rink amide resin, C-terminal amide not given here outright) [octadecaneuropeptide (ODN)]
% Activity, arrestin, antagonist mode, 2.5 uM (NPY1R): -2.7%
% Activity, arrestin, antagonist mode, 2.5 uM (SSTR3): 4.2%
% Activity, arrestin, antagonist mode, 2.5 uM (GPR92): 10.6%
% Activity, arrestin, antagonist mode, 2.5 uM (NTSR1): -21.4%
% Activity, arrestin, antagonist mode, 2.5 uM (GPR120): 22.7%
% Activity, arrestin, antagonist mode, 2.5 uM (CHRM1): 9.3%
% Activity, arrestin, antagonist mode, 2.5 uM (HRH3): -8.6%
% Activity, arrestin, antagonist mode, 2.5 uM (FPRL1): -17.7%
% Activity, arrestin, antagonist mode, 2.5 uM (BDKRB1): -5.7%
% Activity, arrestin, antagonist mode, 2.5 uM (PTGER2): 2.1%
% Activity, arrestin, antagonist mode, 2.5 uM (CCKAR): -17.2%
